According to patent US8252737B2, “Antimicrobial peptides and methods of use” (priority 2004, dated 2012):
Values after ≈ are worked out from the molar mass of the structure shown. Square brackets hold non-standard residues; d marks the D form. Ends that are not written are not given here.

Key:
human erythrocytes = assay: Hemolytic activity (MHC), Protocol B, 18 hours; conditions: maximal peptide concentration showing no hemolysis after 18 hours, hRBC, Table 14
Protocol: In order to evaluate the biological activities of the D-enantiomeric peptides, namely D-NAL and D-NKD, the hemolytic activity of the peptides against human erythrocytes was determined as the maximal peptide concentration that produces no hemolysis after 18 hours of incubation at 37° C.
Measurement of Hemolytic Activity—Protocol A: Peptide samples were added to 1% human erythrocytes in phosphate buffered saline (0.08M NaCl; 0.043M Na2PO4; 0.011M KH2PO4) and reactions were incubated at 37° C. for 12 hours in microtiter plates. Peptide samples were diluted 2 fold in order to determine the concentration that produced no hemolysis. […] Hemoglobin release was determined spectrophotometrically at 562 nm. The hemolytic titer was the highest 2-fold dilution of the peptide that still caused release of hemoglobin from erythrocytes. The control for no release of hemoglobin was a sample of 1% erythrocytes without any peptide added. […] Peptide samples were diluted 2 fold in order to determine the concentration that produced no hemolysis. […] Hemoglobin release was determined spectrophotometrically at 570 nm. The hemolytic titer was the highest 2-fold dilution of the peptide that still caused release of hemoglobin from erythrocytes. The control for no release of hemoglobin was a sample of 1% erythrocytes without any peptide added.

[1] = system: Pseudomonas aeruginosa strains
Protocol: Pseudomonas aeruginosa strains used in this study are a diverse group of clinical isolates from different places in the world. […] The geometric mean MIC values from six Pseudomonas aeruginosa strains were calculated to provide an overall evaluation of antimicrobial activity of these peptides against Pseudomonas aeruginosa. Fold improvement was calculated by comparing the geometric mean MIC value of each peptide to that of the parent peptide V681.
Measurement of Antimicrobial Activity—Minimal inhibitory concentrations (MICs) were determined using a standard microtiter dilution method in LB (Luria-Bertani) no-salt medium (10 g of tryptone and 5 g of yeast extract per liter). Briefly, cells were grown overnight at 37° C. in LB and diluted in the same medium. […] Plates were incubated at 37° C. for 24 hours and MICs determined as the lowest peptide concentration that inhibited growth. Alternatively, minimal inhibitory concentrations were determined using a standard microtiter dilution method in a Mueller-Hinton (MH) medium. Briefly, cells were grown overnight at 37° C. in MH broth and diluted in the same medium. […] Plates were incubated at 37° C. for 24 hours and MICs determined as the lowest peptide concentration that inhibited growth. However, for MIC determination of Pseudomonas aeruginosa clinical isolates, brain heart infusion (BH1) medium was used instead of MH broth. In addition, the bacteria were diluted to a final inoculum of 1×10^6 colony-forming units/ml.
For the Leu-substituted peptides, the hemolytic activity against human erythrocytes was determined as the maximal peptide concentration that produces no hemolysis after 18 hours of incubation at 37° C. Antimicrobial activity of the peptides was determined on a diverse group of Pseudomonas aeruginosa clinical isolates. […] The geometric mean MIC values from six Pseudomonas strains in Table 14 were calculated to provide an overall evaluation of antimicrobial activity of the peptides with different hydrophobicities.

[2] = Circular dichroism spectroscopy of helical structure (benign buffer and 50% TFE); format: physicochemical; conditions: 25° C.; for % helix 50% TFE / % helix Benign: relative to NAL in 50% TFE; for [θ]222 Benign: benign buffer (100 mM KCl, 50 mM PO4 pH 7.0); for [θ]222 50% TFE: benign buffer diluted 1:1 (v/v) with TFE; for % helix Benign: benign buffer
Protocol: To determine the secondary structure of peptides in different environments, circular dichroism (CD) spectra of the peptide analogs were measured under physiologically related pH and ionic strength (100 mM KCl, 50 mM aq. PO4, pH 7 referred to as benign conditions) and also in 50% TFE to mimic the hydrophobic environment of the membrane. […] On the non-polar face, the native L-Val residue was critical in maintaining α-helical structure. […] Even the substitution with L-Ala, which is known to have the highest α-helical propensity of all 20 amino acids (34), could not stabilize the α-helical structure. […] It is noteworthy that, on the non-polar face, the magnitude of the helical content of L-peptides in benign buffer was related to the hydrophobicity of the substituting amino acids, i.e., NLL>NVL>NAL>NSL, NKL, again showing the importance of hydrophobicity on the non-polar face in maintaining the α-helical structure. […] However, whether L- or D-substitutions were made on the non-polar face, high helical structure could be induced by the hydrophobic environment of 50% TFE, a mimic of the membrane's hydrophobicity and α-helix inducing ability (Table 3).
To determine the secondary structure of the D-enantiomeric peptides in different environments, CD spectra of the peptide analogs were measured under benign conditions (100 mM KCl, 50 mM KH2PO4/K2HPO4, pH 7.4, referred to as KP buffer) and also in 50% trifluoroethanol (TFE) to mimic the hydrophobic environment of the membrane. […] However, in the presence of 50% TFE, all three L-peptides were fully folded α-helical structures with similar ellipticities and helicity (Table 4).
Characterization of Helical Structure—The mean residue molar ellipticities of peptides were determined by circular dichroism (CD) spectroscopy, using a Jasco J-720 spectropolarimeter (Jasco, Easton, Md.), at 25° C. under benign conditions (50 mM KH2PO4/K2HPO4/100 mM KCl, pH 7), as well as in the presence of an α-helix inducing solvent, 2,2,2-trifluoroethanol (TFE) (50 mM KH2PO4/K2HPO4/100 mM KCl, pH 7 buffer/50% TFE). A 10-fold dilution of a ˜500 μM stock solution of the peptide analogs was loaded into a 0.02 cm fused silica cell and its ellipticity scanned from 190 to 250 nm. The values of molar ellipticities of the peptide analogs at a wavelength of 222 nm were used to estimate the relative α-helicity of the peptides.

[3] = RP-HPLC temperature profiling (hydrophobicity and self-association/dimerization parameter PA); format: physicochemical; conditions: for tR (min) 5° C.: RP-HPLC retention time at 5° C. during temperature profiling (measure of hydrophobicity); for tR (min) 80° C.: RP-HPLC retention time at 80° C. during temperature profiling; for overall hydrophobicity change relative to PVL: RP-HPLC retention time difference at 80° C.; for overall hydrophobicity change relative to PVL / ΔtR (X-PSL) (min) 5° C. / ΔtR (X-PSL) (min) 80° C.: polar face substitutions; for tR (min) Max: maximal RP-HPLC retention time during temperature profiling 5-80° C.; for PA (min) association parameter: maximal retention time difference relative to control peptide C within 5-80° C.; for ΔtR (X-PSL) (min) 5° C.: retention time difference relative to native peptide V681 (PSL) at 5° C.; for ΔtR (X-PSL) (min) 80° C.: retention time difference relative to native peptide V681 (PSL) at 80° C.
Protocol: The retention time data for the peptides is shown in Table 5 which records retention times at 5° C., the maximal retention times and retention times at 80° C. during the temperature profiling. Temperatures of 5° C. and 80° C. were the lower and upper temperature limits of temperature profiling in RP-HPLC, representing dimerization of the peptides at 5° C. and the monomerization of peptides at 80° C. due to dissociation of the dimers. The maximal retention times represent the threshold points at which peptides transform from dimeric to monomeric form. Among the non-polar face substituted peptides, peptides with more hydrophobic substitutions (whether L- or D-amino acid substitutions) were more retained during RP-HPLC, i.e., peptides were eluted in the order of Lys, Gly, Ser, Ala, Val and Leu (Table 5). In addition, on the non-polar face, the L-analogs were always more retained than the D-diastereomers (Table 5, FIG. 5). […] In contrast, on the polar face, the elution order of peptides was not correlated with the order of amino acid side-chain hydrophobicity, e.g., PAL and PSL were more retained than PVL (Table 5); PSD was the most retained peptide among the D-amino acid substituted analogs on the polar face (Table 5).
The ability of the D-peptides to self-associate was determined by RP-HPLC temperature profiling. […] As expected, L- and D-peptide enantiomers were totally inseparable over this temperature range, since each pair of peptides is identical in sequence and must adopt identical conformations on interacting with the reversed-phase matrix, whether in an all-L- or all-D-conformation. RP-HPLC retention behavior has been frequently utilized to represent overall peptide hydrophobicity (53, 26). In the present study, the hydrophobicity of the three peptide pairs is in the order V681/D-V681>[…]>NKL/D-NKD (Table 4), which agrees with the change in hydrophobicity of the substitutions at position 13 in order of the most hydrophobic to the least hydrophobic amino acid residue (Val in V681>Ala in NA>Lys in NK) (54). […] For example, the retention times of peptides V681/D-V681 increase with increasing temperature (up to ˜30° C.) followed by a retention time decrease with a further temperature increase. […] Since peptide C is a monomeric random coil peptide in both aqueous and hydrophobic media, its retention behavior over the temperature range 5° C. to 80° C. represents only general temperature effects on peptide retention behavior, i.e., a linear decrease in peptide retention time with increasing temperature due to greater solute diffusivity and enhanced mass transfer between the stationary and mobile phases at higher temperatures (55). Thus, after normalization to the retention times of peptide C, the retention behavior of the peptides represents only peptide self-association ability. Note that the higher the PA value, the greater the self-association ability. […] From Table 4, it is also clear that the peptide retention times at 80° C. are dramatically lower than those at 5° C.
Elution times during RP-HPLC have frequently been utilized as a measure of relative hydrophobicity of peptide analogs (26, 31). In the current study, peptide analogs differed only by a single amino acid substitution on either the non-polar face or the polar face of V681; thus, the retention time data in Table 5 can be considered to reflect the hydrophobicity difference between peptide analogs. In order to more easily visualize the variation in hydrophobicity of the peptide analogs, the retention time data in Table 5 were normalized relative to that of the native peptide V681 at 5° C. and 80° C., respectively. Hydrophobicity relative to the native peptide V681 indicates an increase or decrease of the apparent peptide hydrophobicity with the different amino acid substitutions on the polar or non-polar face. […]

Compound | % helix 50% TFE [2] | [θ]222 Benign [2] | [θ]222 50% TFE [2] | % helix Benign [2] | tR (min) 5° C. [3] | tR (min) 80° C. [3] | overall hydrophobicity change relative to PVL [3] | tR (min) Max [3] | PA (min) association parameter [3] | ΔtR (X-PSL) (min) 5° C. ([3]; relative hydrophobicity) | ΔtR (X-PSL) (min) 80° C. ([3]; relative hydrophobicity) | also measured
CC[C@H](C)[C@H](NC(=O)[C@H](CC(C)C)NC(=O)[C@H](CCCCN)NC(=O)[C@H](CC(C)C)NC(=O)[C@H](C)NC(=O)[C@@H](NC(=O)[C@H](Cc1c[nH]cn1)NC(=O)[C@H](CC(C)C)NC(=O)[C@@H](NC(=O)[C@@H](NC(=O)[C@H](CCCCN)NC(=O)[C@H](CCCCN)NC(=O)[C@H](CC(C)C)NC(=O)[C@H](CO)NC(=O)[C@H](CCCCN)NC(=O)[C@H](Cc1ccccc1)NC(=O)[C@@H](NC(=O)[C@H](CCCCN)NC(=O)[C@H](CC(C)C)NC(=O)[C@H](Cc1ccccc1)NC(=O)[C@H](CO)NC(=O)[C@H](CCCCN)NC(=O)[C@H](Cc1c[nH]c2ccccc12)NC(=O)[C@H](CCCCN)NC(C)=O)[C@@H](C)O)[C@@H](C)O)C(C)C)[C@@H](C)O)C(=O)N[C@@H](CO)C(=O)N[C@@H](CO)C(N)=O [A12L/A23L] |  |  |  |  |  |  |  |  |  |  |  | Hemolytic activity MHC (human erythrocytes): 15.6 µg/mL; MIC (μg/ml) CP 204 ([1]; Pseudomonas aeruginosa clinical isolate CP 204): 7.8 µg/mL (≈ 2.54 µM); MIC (μg/ml) M 2 ([1]; Pseudomonas aeruginosa clinical isolate M 2): 31.3 µg/mL (≈ 10.2 µM); MIC (μg/ml) PA 14 ([1]; Pseudomonas aeruginosa clinical isolate PA 14): 62.5 µg/mL (≈ 20.3 µM); MIC (μg/ml) PAK ([1]; Pseudomonas aeruginosa clinical isolate PAK): 15.6 µg/mL (≈ 5.07 µM); MIC (μg/ml) PAO 1 ([1]; Pseudomonas aeruginosa clinical isolate PAO 1): 15.6 µg/mL (≈ 5.07 µM); MIC (μg/ml) WR 5 ([1]; Pseudomonas aeruginosa clinical isolate WR 5): 250.0 µg/mL (≈ 81.3 µM); MIC (μg/ml) GM ([1]; geometric mean of the MIC values for the 6 Pseudomonas aeruginosa clinical isolates): 31.2 µg/mL (≈ 10.1 µM)
PAL: V681 analog with L-Ala at position 11 (polar face) (KWKSFLKTFKAAVKTVLHTALKAISS) | 95% | −13,600 deg · cm^2 · dmol^−1 | −27,600 deg · cm^2 · dmol^−1 | 47% | 48.25 min | 46.63 min | +0.45 min | 50.57 min | 4.15 min | 0.15 min | 0.80 min | 
NLD: V681 analog with D-Leu at position 13 (non-polar face) (KWKSFLKTFKSA[dL]KTVLHTALKAISS-NH2; not fully specified) | 89% | −7,350 deg · cm^2 · dmol^−1 | −25,750 deg · cm^2 · dmol^−1 | 25% | 45.10 min | 43.03 min |  | 46.37 min | 3.02 min |  |  | ΔtR (X-NVL) (min) 5° C. ([3]; non-polar face substitutions, retention time difference relative to native peptide V681 (NVL) at 5° C., relative hydrophobicity): -3.00 min; ΔtR (X-NVL) (min) 80° C. ([3]; non-polar face substitutions, retention time difference relative to native peptide V681 (NVL) at 80° C., relative hydrophobicity): -2.80 min
PKL: V681 analog with L-Lys at position 11 (polar face) (KWKSFLKTFKKAVKTVLHTALKAISS) | 94% | −5,950 deg · cm^2 · dmol^−1 | −27,350 deg · cm^2 · dmol^−1 | 21% | 46.38 min | 43.89 min | -2.29 min | 47.90 min | 3.17 min | -1.72 min | -1.94 min | 
PLL: V681 analog with L-Leu at position 11 (polar face) (KWKSFLKTFKLAVKTVLHTALKAISS) | 99% | −10,850 deg · cm^2 · dmol^−1 | −28,550 deg · cm^2 · dmol^−1 | 37% | 48.78 min | 47.51 min |  | 51.23 min | 4.33 min | 0.68 min | 1.68 min | 
